The values below come from the supplement of paper PMC12764529.

± gives the half width of the 95% confidence interval. Where only a bound is given, the exact number is not on record here.

Data set [1] in a line: folding stability dG unfold from trypsin proteolysis; higher = more stable. Put shortly: (§1)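 Designed mini-proteins with no cysteine and under 80 residues were kept only if AlphaFold2 dimer inter-PAE was above 15. In a PA-tagged cDNA display construct, they were digested with trypsin and chymotrypsin and then sequenced. K50 was inferred by Bayesian fitting of counts, and unfolding free energy was derived per protease or combined against a sequence-predicted unfolded-state K50 and a shared folded-state K50.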

Data set [2] can be described thus: folding stability dG unfold from chymotrypsin proteolysis; higher = more stable. The method in brief:
as §1

Data set [3] in a line: folding stability dG unfold (combined trypsin and chymotrypsin); higher = more stable. Put shortly: as §1

“SAGGSAKMKITVEKNEDGELYVLIEVDSVEELEEALKKLPGIEKVEVEVFVDEETKRVYILVRVKPSAGGSA [r15_344_TrROS_Hall]”: the figures for the “folding stability dG unfold” value in data set [1], in data set [2] and in data set [3] were 2.36 ± 0.071 kcal/mol, 3.62 ± 0.045 kcal/mol and 3.26 ± 0.064 kcal/mol, respectively.
With “SAGGSAKPEKVIVLEIEIEMTPEEVKKLVEELLKEKFGVEIERIEVEVERLPDGTLKVRVRVVIRESAGGSA [r15_138_TrROS_Hall]”, the “folding stability dG unfold” value in data set [1] is 3.31 ± 0.13 kcal/mol; in data set [2], 2.94 ± 0.12 kcal/mol; in data set [3], 3.17 ± 0.084 kcal/mol.
The corresponding values for “SAGGSAKPKIEIEVEKLEGVKEGDTIEVKIKFPNGFIIKIEAKVKRVDGKLVIEVTKVEVIPKEDLSAGGSA [r15_636_TrROS_Hall]” are 2.7 ± 0.14 kcal/mol, 3.17 ± 0.2 kcal/mol and 3.16 ± 0.3 kcal/mol.
The corresponding values for “SAGGSAKPKITITVTYDKETNTVTVTITFPDGTTLTITVEAETEEEAKKAAKKLVEELLKKLEELESAGGSA [r15_477_TrROS_Hall]” are 3.46 ± 0.27 kcal/mol, 3.4 ± 0.2 kcal/mol and 3.52 ± 0.23 kcal/mol.
The corresponding values for “SAGGSAKPVIVKIHFPNMKPEKILELAKEFGAVPLKMDPNKGVAIVLATEEKVEEIAAKGNFKIEASAGGSA [r15_731_TrMRF]” are 0.736 ± 0.043 kcal/mol, 0.205 ± 0.39 kcal/mol and 0.515 ± 0.26 kcal/mol.
On to “SAGGSAKPVMVRIKFPNMPPEKLQDAFQEYGMQPQNMDPNKGEMIIMIPWEAAEEIQDKNGFKIEISAGGSA [r15_731_TrROS]”, for which the “folding stability dG unfold” value is -0.489 ± 0.16 kcal/mol in data set [1], 0.8 ± 0.17 kcal/mol in data set [2] and 0.323 ± 0.24 kcal/mol in data set [3].
The corresponding values for “SAGGSAKTITIYAPDLPLSEAIETLERLIKELGLTPVSVSVSYNPETGTVTITVTLPNGDTLTLHVSAGGSA [r15_958_TrMRF]” are 2.18 ± 0.058 kcal/mol, 3.37 ± 0.046 kcal/mol and 2.99 ± 0.079 kcal/mol.
Regarding “SAGGSAKTKVIEIEIDLSPEEIEELAKKLKEEGKVEEVKVEYDEKTGKVKVTVVVRDKNGEWKKLSSAGGSA [r15_177_TrROS_Hall]”, the results for the “folding stability dG unfold” value in data set [1], in data set [2] and in data set [3] were 0.854 ± 0.066 kcal/mol, -0.0755 ± 0.48 kcal/mol and 0.556 ± 0.15 kcal/mol, respectively.
Turning to “SAGGSAKTVSIWIPDDLPNMPIEELIKEVMKAFPPGDEIKDIDVEPWPNGGYMYTFTVNGKEVIIWSAGGSA [r15_451_TrROS]”, the results for the “folding stability dG unfold” value in data set [1], in data set [2] and in data set [3] were 1.29 ± 0.043 kcal/mol, 1.93 ± 0.1 kcal/mol and 1.78 ± 0.17 kcal/mol, respectively.
The corresponding values for “SAGGSAKVIVEELPDGSIKIYFPETGAVIVLNPETGEAVVFVNPKKKNNEPPSLDDVLKAAKEALGSAGGSA [r15_735_TrMRF]” are 0.413 ± 0.041 kcal/mol, 1.6 ± 0.019 kcal/mol and 1.28 ± 0.063 kcal/mol.
The corresponding values for “SAGGSAKVKIEFFQMPPGGNPRDMQKKAQDKGDIFIIVNKPGWMIVITADDPEDANTIAKEILEEFSAGGSA [r15_546_TrROS]” are 0.735 ± 0.086 kcal/mol, 1.08 ± 0.11 kcal/mol and 0.954 ± 0.092 kcal/mol.
The corresponding values for “SAGGSAKVKIEVSIEVSEDGTITITVRITNENGEELTVTITIKLPPAPTVVYDSEEERKKALEALASAGGSA [r15_1018_TrROS_Hall]” are 2.9 ± 0.14 kcal/mol, 2.2 ± 0.19 kcal/mol and 2.38 ± 0.26 kcal/mol.
For “SAGGSAKVKIYLIKLPPNGNPLEVIKKVKEKGGNAIIVSGPGLHAVIEADEPEEAAKKAKEILEKLSAGGSA [r15_546_TrMRF]”, the results for the “folding stability dG unfold” value in data set [1], in data set [2] and in data set [3] were 0.361 ± 0.1 kcal/mol, 0.121 ± 0.2 kcal/mol and 0.292 ± 0.097 kcal/mol, respectively.
Regarding “SAGGSAKVTIDTDNGIIKIEVGGKLIAEIEIPPGFPGGIYLEYEPNPPTLKFYIYTKNGPVYINDISAGGSA [r2_399_TrMRF]”, the “folding stability dG unfold” value in data set [1] is 3.5 ± 0.43 kcal/mol; in data set [2], 3.96 ± 0.17 kcal/mol; in data set [3] it was 3.69 ± 0.32 kcal/mol.
The corresponding values for “SAGGSAKVVEIELVEVRRNANGERIVRVRIKLPNGEERTIEMSEEELKELLAKLPPNVEIVAIEEVSAGGSA [r15_339_TrROS_Hall]” are 1.42 ± 0.077 kcal/mol, 1.76 ± 0.043 kcal/mol and 1.56 ± 0.15 kcal/mol.
The corresponding values for “SAGGSAKWLPAEELADELADTLMQRHGYEIKNVDVEVIDPDEGYIRVNIEYEHPGGRHKHDIIIPVSAGGSA [r15_32_TrROS]” are 0.1 ± 0.18 kcal/mol, 0.851 ± 0.092 kcal/mol and 0.662 ± 0.17 kcal/mol.
“SAGGSALENLEENEYIVKIEIEKKNKKKIEIVIAGKPEKIKEIEKELKKKGFKILKIEPKKVKDVLSAGGSA [r15_640_TrMRF]”: the “folding stability dG unfold” value in data set [1] was 1.45 ± 0.054 kcal/mol; in data set [2], 1.59 ± 0.066 kcal/mol; in data set [3], 1.56 ± 0.1 kcal/mol.
The corresponding values for “SAGGSALKIMVEPDPEDGTVRVWFMIPNPENGEEFMVQAEIDPNGKIEDVEVYPNGNMIWITFKLPSAGGSA [r15_557_TrROS]” are 2.4 ± 0.061 kcal/mol, 3.36 ± 0.037 kcal/mol and 2.96 ± 0.087 kcal/mol.
The corresponding values for “SAGGSALKIPSGKKYTVVVKDPNKPVEYVADVIERHPDSILIEVKDPNSSKTKKITVPTNVITIDLSAGGSA [r15_381_JUSTAS]” are -0.095 ± 0.15 kcal/mol, 0.684 ± 0.16 kcal/mol and 0.464 ± 0.19 kcal/mol.
With “SAGGSALPEDATVKVEVTVVTLVYDPETGGFYLKVAKVEKEIRFDPKNGKLEVKVKKVEVKVFKLGSAGGSA [r15_517_TrMRF]”, the “folding stability dG unfold” value in data set [1] stood at 2.96 ± 0.21 kcal/mol; in data set [2] it was 4.41 ± 0.17 kcal/mol; in data set [3], 4.19 ± 0.33 kcal/mol.
The corresponding values for “SAGGSALPPGQEVEITIMIMVMIYNPENGRMWMVMASVEIEIRVDPKNGKLEIKIKKISISIFPMDSAGGSA [r15_517_TrROS]” are 4.23 ± 0.72 kcal/mol, 5.8 ± 0.52 kcal/mol and more than 6 kcal/mol.
The corresponding values for “SAGGSALPPHAVRVLVVTATDTDPGAAAARIAEEFRRKYPNTRVLTRPFDVPPGRPAVVAVVYVDESAGGSA [r15_916_TrMRF]” are 1.15 ± 0.12 kcal/mol, 2.54 ± 0.11 kcal/mol and 2.08 ± 0.2 kcal/mol.
The corresponding values for “SAGGSAMDAKVVDLSLPFTLSEDGSLTATVTIEFPDGSKVPIEIPGREDGELKLEEILAAAKEALGSAGGSA [r15_233_TrMRF]” are 0.553 ± 0.093 kcal/mol, 0.27 ± 0.069 kcal/mol and 0.478 ± 0.14 kcal/mol.
For the sequence “SAGGSAMDLKIKKKERDPPNGTKKLTVEVPGWEVEINIERNPDGPYKIEIYAPNPAAKNAIKEFIKSAGGSA [r15_42_TrROS]”, the “folding stability dG unfold” value in data set [1] is -0.275 ± 0.26 kcal/mol; in data set [2] it was 0.488 ± 0.18 kcal/mol; in data set [3], 0.324 ± 0.2 kcal/mol.
The corresponding values for “SAGGSAMDPSKLVRKKVRFRVVDPNGKPLGEIDIEVEFPGGVSEEEAEELLRELIAALAPPAGVEGSAGGSA [r15_310_TrMRF]” are 1.52 ± 0.022 kcal/mol, 3.023 ± 0.023 kcal/mol and 2.73 ± 0.071 kcal/mol.
Turning to “SAGGSAMEEEKPPKVKVRITVELEDGEKLEIEFETKEEAEEAAEALAKELEEKTGLKIKKIEVEEVSAGGSA [r15_140_TrROS_Hall]”, the “folding stability dG unfold” value in data set [1] came to 2.77 ± 0.11 kcal/mol; in data set [2], 2.96 ± 0.13 kcal/mol; in data set [3], 2.81 ± 0.23 kcal/mol.
The corresponding values for “SAGGSAMEIDIDPEKNEIRIYNPWNGQPHPFTIESIEPIDPDNKYFKFKIKYPDTGKEMPFMVQIDSAGGSA [r15_209_TrROS]” are 0.57 ± 0.042 kcal/mol, 1.4 ± 0.15 kcal/mol and 1.08 ± 0.12 kcal/mol.
The corresponding values for “SAGGSAMEIKTLETKTVKTEKLPDGSTKVTTTYKTVDPSGGKTSNYIKTTLYAPDGKKTSTEVKEKSAGGSA [r15_758_JUSTAS]” are 0.355 ± 0.048 kcal/mol, 1.03 ± 0.098 kcal/mol and 0.773 ± 0.1 kcal/mol.
“SAGGSAMEKLKEIPGIERIEVKEDGKIIIHVKMSEEERKKLAEALRKEGKVKIEVVPVEVEEEEEESAGGSA [r15_554_TrROS_Hall]”: the “folding stability dG unfold” value in data set [1] turned out to be 2.83 ± 0.12 kcal/mol; in data set [2] it was 2.03 ± 0.072 kcal/mol; in data set [3], 2.3 ± 0.11 kcal/mol.
The corresponding values for “SAGGSAMFYLLKVELPDGKVLEIRIEATPEEKEEFVEKIKSHPEVKSVELEPISKEEAEELGFEEISAGGSA [r15_39_TrMRF]” are 2.62 ± 0.12 kcal/mol, 3.274 ± 0.025 kcal/mol and 3.08 ± 0.12 kcal/mol.
The corresponding values for “SAGGSAMGMRPVRREFTGSGMRITVEVVESTSIPTAEIRVLDPEGRLLRERRLPAEEVEREIARLLSAGGSA [r15_940_JUSTAS]” are 1.34 ± 0.069 kcal/mol, 1.58 ± 0.092 kcal/mol and 1.55 ± 0.096 kcal/mol.
On to “SAGGSAMIEIEIVKPNASPEEAEKLEKEVREKLLEEGVPEEVVKEVNIKVIVKPVKKDKNNNPILESAGGSA [r15_684_JUSTAS]”, for which the “folding stability dG unfold” value is -0.215 ± 0.15 kcal/mol in data set [1], 0.977 ± 0.19 kcal/mol in data set [2] and 0.811 ± 0.2 kcal/mol in data set [3].
On to “SAGGSAMIEIKVEVNGKTYRITIEKNEDGTLTLTVYDEKTGKKTEIEIPLENLEELKKLNVKRIEISAGGSA [r15_629_TrROS_Hall]”, for which the “folding stability dG unfold” value in data set [1] is 1.78 ± 0.077 kcal/mol; in data set [2] it was 3.54 ± 0.036 kcal/mol; in data set [3], 3.09 ± 0.12 kcal/mol.
The corresponding values for “SAGGSAMIKTSYDPNGKTIYTIPETGAVITVDPSTGKVTVEVDPESQANNPLPEEEVKKLAEEVLKSAGGSA [r15_735_JUSTAS]” are 0.481 ± 0.049 kcal/mol, 1.34 ± 0.018 kcal/mol and 1.1 ± 0.043 kcal/mol.
“SAGGSAMIVIPVDPNDPAAEKTVAEAIAAGKDVIIRSPSGKYTFYKPDGSKKELSSEEEIKKAGLESAGGSA [r15_94_JUSTAS]”: the “folding stability dG unfold” value in data set [1] is 0.249 ± 0.086 kcal/mol; in data set [2], -0.495 ± 0.77 kcal/mol; in data set [3] it was 0.0288 ± 0.19 kcal/mol.
